Assay results taken from US20190016812A1 (AbbVie / Abbott, published 2019).
Read-outs that look alike come from different tables or passages of the source.

Legend:
[1] = target: T1, human TNFSF9 (R&D Systems; #2295-4L-025/CF) (human, UniProt P41273 71-254, limits assumed); experiment: MSD ELISA: TNFSF9 + 1 ug/mL antibody, binding to coated TNFRSF9
T1 construct: also called TNFSF9 (ligand); TNFSF9 ligand

[2] = target: T2, human TNFSF9 (hTNFSF9), full length, overexpressed on HEK293T cells (human, UniProt P41273 1-254); experiment: cell-based or functional assay
[3] = target: T3, cynomolgus TNFSF9 (cTNFSF9), full length, overexpressed on HEK293T cells (cynomolgus); experiment: cell-based or functional assay
[4] = target: T4, hTNFSF9-His (monomeric human TNFSF9 extracellular domain with 9x-Histidine tag) (human, UniProt P41273 50-254); experiment: SPR (Biacore)
T4 construct: also called hTNFSF9-His protein; monomeric hTNFSF9-His antigen
T4 sequence (P41273 other isoform, or with tags, fused parts or gaps): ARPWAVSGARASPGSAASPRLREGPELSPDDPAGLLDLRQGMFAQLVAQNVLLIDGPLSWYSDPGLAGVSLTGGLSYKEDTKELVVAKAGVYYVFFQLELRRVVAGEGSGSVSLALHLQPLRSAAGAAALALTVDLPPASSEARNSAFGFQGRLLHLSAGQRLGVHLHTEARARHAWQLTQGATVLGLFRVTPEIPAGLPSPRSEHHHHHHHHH

[5] = target: T5, cynomolgus TNFSF9 (cTNFSF9) protein, soluble recombinant (cynomolgus); experiment: SPR (Biacore)
T5 construct: extracellular domain; also called cynomolgus TNFSF9 protein

[6] = target: T2, human TNFSF9 (hTNFSF9), full length, …; experiment: cell-based or functional assay; remark: listed apart in the source
[7] = target: T3, cynomolgus TNFSF9 (cTNFSF9), full …; experiment: cell-based or functional assay; remark: listed apart in the source
[8] = target: T1, human TNFSF9 (R&D Systems; …); experiment: MSD ELISA: TNFSF9 + 1 ug/mL antibody, binding to coated TNFRSF9; remark: listed apart in the source
[9] = target: T4, hTNFSF9-His (monomeric human TNFSF9 …); experiment: SPR (Biacore); remark: listed apart in the source
[10] = target: T5, cynomolgus TNFSF9 (cTNFSF9) protein, …; experiment: SPR (Biacore); remark: listed apart in the source

T1 sequence (P41273 71-254 limits assumed): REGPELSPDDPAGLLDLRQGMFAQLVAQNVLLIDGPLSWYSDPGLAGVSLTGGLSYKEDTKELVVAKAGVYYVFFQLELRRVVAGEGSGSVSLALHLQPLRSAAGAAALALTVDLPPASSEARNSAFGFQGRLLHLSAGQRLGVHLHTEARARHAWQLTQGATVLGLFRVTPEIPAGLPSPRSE

Row | Binder | % inhibition of ligand receptor interaction [1] [%] | % live cells, Fab-saporin killing, 250 pM antibody [2] [%] | % live cells, Fab-saporin killing, 250 pM antibody [3] [%] | Kd [4] [nM] | Kd [5] [nM] | % live cells, Fab-saporin killing, 250 pM antibody [6] [%] | % live cells, Fab-saporin killing, 250 pM antibody [7] [%] | % inhibition of ligand receptor interaction [8] [%] | Kd [9] [nM] | Kd [10] [nM]
1 | SC113.44 (antibody, mouse IgG1, V domains shown, mouse IgG1) VH: QVQLQQSGPELVKPGTSVRISCKASGYTFTSYYIHWVKQRPGQGLEWIGWIYPRDVDTKYNETFKGKATLTADKSSSTAYIQLNSLTSEDSAVYFCARELTGTVFDYWGQGTTLTVSS VL: QIVLSQSPAILSASPGEKVTMTCRASSSVTYMHWYQRKPGSSPKPWIYATSTLASGVPARFSGTGSGTSYSLTISRVEAEDAATYFCQQWSSNPLTFGAGTKLELK | 48 | 10.8 | 33.9 | 9 | 13 |  |  |  |  | 
2 | SC113.14 (antibody, mouse IgG2a, V domains shown, mouse IgG2a) VH: QVQLQQSGAELVKPGASVKLSCKASGYTFTEYTIHWVKQKSGQGLEWIGWFYPGSGSLKFNEKFKDKATLTADISSNTVYMELSRLTSEDSAVYFCARHEDFFYFDSYTMDYWGQGTSVTVSS VL: QIVLTQSPAIMSASPGEKVTLTCSASSSVSSSYLYWYQQKPGSSPKLWIYSTSKLSSGVPARFSGSGSGTSYSLTISSMEAEDAASYFCHQWSTYPWTFGGGTKLEIK |  |  |  |  |  | 10.2 | 11 | -34 | 3 | 7
3 | SC113.15 (antibody, mouse IgG1, V domains shown, mouse IgG1) VH: QVQLQQSGAELAKPGASVKMSCKASGYTFTTFWMHWLKQRPGQGLEWIGYINPRTYFTYYNQKFEDQATLTADESSSTAYMQLNSLTSEDSAVYYCATHHGGFDVWGAGTTVTVSS VL: DVVMTQTPLSLPVSLGDQASISCRSSQSLVHSNGDTYLHWYLQKPGQSPKLLIYKVSNRFSGVPDRFSGSRSGTDFTLKISRVEAEDLGIYFCSQSTHVPYTFGGGTKLEIK |  |  |  |  |  | 20.2 | 107 | 42 | 5 | 11
4 | SC113.35 (antibody, mouse IgG2b, V domains shown, mouse IgG2b) VH: DVQLQESGPDLVKPSQSLSLTCTVTGYSITSGYGWHWIRQFPGNKLEWMGYIDYSGNNNYNPSLKSRISITRDTSKNQLFLQLNSVTAEDTATYFCARIYYDAMDYWGQGTSVTVSS VL: DIVMTQSHKFMSTSVGERVSITCKASQDVGGAVAWYQQKPGQSPKLLIYWASTRHTGVPDRFTGSGSGTDFTLTISNVQSEDLADYFCQQYSSYPLTFGAGTKLDLK | 73 | 28.5 | 69.6 | 4 | 10 |  |  |  |  | 
